Data from PMC4342108.
Residue numbers refer to the chain shown, from its start.

Columns and labels:
Test in all cases: SPR
tCid1 (wild type) = biological target: T1, tCid1 (wild type) (Schizosaccharomyces pombe, UniProt O13833 33-405)
T1 sequence: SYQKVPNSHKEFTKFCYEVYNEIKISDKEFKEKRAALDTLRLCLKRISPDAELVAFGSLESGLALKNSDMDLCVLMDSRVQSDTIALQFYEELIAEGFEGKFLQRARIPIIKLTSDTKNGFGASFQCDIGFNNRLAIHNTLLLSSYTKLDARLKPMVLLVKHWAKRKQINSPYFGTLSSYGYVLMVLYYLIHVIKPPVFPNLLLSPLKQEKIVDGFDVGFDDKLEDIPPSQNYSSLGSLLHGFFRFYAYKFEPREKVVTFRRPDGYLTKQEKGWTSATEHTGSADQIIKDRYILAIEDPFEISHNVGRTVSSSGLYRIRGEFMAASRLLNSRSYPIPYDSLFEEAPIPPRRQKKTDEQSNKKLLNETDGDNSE

tCid1 mutant 1 = biological target: T2, tCid1 mutant 1 (Schizosaccharomyces pombe, UniProt O13833 33-405, K133A;R137A)
T2 sequence: T1 sequence with K101A, R105A

tCid1 mutant 2 = biological target: T3, tCid1 mutant 2 (Schizosaccharomyces pombe, UniProt O13833 33-405, K321A;R323A)
T3 sequence: T1 sequence with K289A, R291A

tCid1 mutant 3 = biological target: T4, tCid1 mutant 3 (Schizosaccharomyces pombe, UniProt O13833 33-405, R277A;K282A)
T4 sequence: T1 sequence with R245A, K250A

B1: 21 nt SPR RNA (ssRNA)
RNA: GAUUUGACGUUGGUUUUGACG
- Kd (tCid1 (wild type)): ~100 nM
- Kd (tCid1 mutant 1): ~200 nM
- Kd (tCid1 mutant 2): ~450 nM
- Kd (tCid1 mutant 3): ~410 nM
